{"source": "patent EP3464323B1", "biological_target": "CY5 fluorescently labeled CAS9 protein (S. pyogenes) (UniProt Q99ZW2)", "experiment": "fluorescence titration; 5 nM CY5-CAS9 titrated with peptide, quadratic fit"}
{"substance": "CADY (peptide)", "values": [{"measurement": "Kd", "result": "> 100", "unit": "nM"}]}
